We go through 40 sequences from the supplement of paper PMC7877785.

± gives the uncertainty stated by the source.

This data set in a line: self-splicing fitness, log relative to wild type (ln ratio); higher = more splicing; Tetrahymena group I intron in knt gene, E. coli kanamycin selection, DiMSum; sequences stand for … in CUCUCU…GGAGGGAAAAGUUAUCAGGCAUGCACCUGGUAGCUAGUCUUUAAACCAAUAGAUUGCAUCGGUUUAAAAGGCAAGACCGUCAAAUUGCGGGAAAGGGGUCAACAGCCGUUCAGUACCAAGUCUCAGGGGAAACUUUGAGAUGGCCUUGCAAAGGGUAUGGUAAUAAGCUGACGGACAUGGUCCUAACCACGCAGCCAAGUCCUAAGUCAACAGAUCUUCUGUUGAUAUGGAUGCAGUUCACAGACUAAAUGUCGGUCGGGGAAGAUGUAUUCUUCUCAUAAGAUAUAGUCGGACCUCUCCUUAAUGGGAGCUAGCGGAUGAAGUGAUGCAACACUGGAGCCGCUGGGAACUAAUUUGUAUGCGAAAGUAUAUUGAUUAGUUUUGGAGUACUCGUGGUCG
The method, boiled down: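 Colonies from six replicate transformations of E. coli BL21(DE3) were pooled and amplicon-sequenced on an Illumina HiSeq 2500. The library placed an intron with all eight P1ex-region nucleotides randomised inside the knt kanamycin-resistance gene on pET-22b(+), and cells grew overnight at 37°C or 30°C on LB agar with or without 25 μg/mL kanamycin (plus 100 μg/mL carbenicillin, 50 μM IPTG, 0.2% rhamnose). Fitness is the DiMSum error-weighted combination of wild-type-normalised replicate fold changes, kanamycin versus none.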

As for UUGGAGCAAUAUUACGUCCU, the “self-splicing fitness (ln)” value (30 °C) is -2.05 ± 0.2 and the “self-splicing fitness (ln)” value (37 °C) was -0.535 ± 0.17.

AAUAAGCAAUAUUACGGUUA: the “self-splicing fitness (ln)” value is -0.197 ± 0.08 (30 °C) and -0.369 ± 0.077 (37 °C).

Consider CGAAAGCAAUAUUACGGGUU, for which the “self-splicing fitness (ln)” value was -3.58 ± 0.21 (30 °C) and -2.74 ± 0.19 (37 °C).

CUCCAGCAAUAUUACGCGGU: the “self-splicing fitness (ln)” value (30 °C) is -4.01 ± 0.23 and the “self-splicing fitness (ln)” value (37 °C) was -3.96 ± 0.25.

AGUAAGCAAUAUUACGCAAC: where the note is “37 °C”, the “self-splicing fitness (ln)” value is -2.61 ± 0.38.

For the sequence UUGUAGCAAUAUUACGCUAA, the “self-splicing fitness (ln)” value was -0.865 ± 0.17 (30 °C) and -0.386 ± 0.19 (37 °C).

In the case of GUGGAGCAAUAUUACGCCUG, the “self-splicing fitness (ln)” value (30 °C) was -2.7 ± 0.23.

Turning to CCAAAGCAAUAUUACGAAAC, the “self-splicing fitness (ln)” value by setting is: (30 °C) -3.13 ± 0.2; (37 °C) -2.95 ± 0.34.

For AAAAAGCAAUAUUACGUCGC, the “self-splicing fitness (ln)” value runs as follows: (30 °C) -2.7 ± 0.26; (37 °C) -1.34 ± 0.17.

Turning to CACUAGCAAUAUUACGCGUC, the “self-splicing fitness (ln)” value was -1.84 ± 0.1 (30 °C) and -2.75 ± 0.21 (37 °C).

CGCAAGCAAUAUUACGGUGU: the “self-splicing fitness (ln)” value reads like this: (30 °C) -3.42 ± 0.16; (37 °C) -3.25 ± 0.23.

Take CUGUAGCAAUAUUACGGAUA: the “self-splicing fitness (ln)” value runs as follows: (30 °C) -2.3 ± 0.28; (37 °C) -2.22 ± 0.33.

With ACGAAGCAAUAUUACGGUAG, the “self-splicing fitness (ln)” value (30 °C) was -2.36 ± 0.15 and the “self-splicing fitness (ln)” value (37 °C) was -2.22 ± 0.22.

In the case of UUUUAGCAAUAUUACGUACU, the “self-splicing fitness (ln)” value (37 °C) came out at 0.399 ± 0.37.

With GAUUAGCAAUAUUACGUUCU, the “self-splicing fitness (ln)” value is -2.91 ± 0.11 (30 °C) and -2.07 ± 0.1 (37 °C).

Turning to UUACAGCAAUAUUACGUACU, the “self-splicing fitness (ln)” value by setting is: (30 °C) -0.865 ± 0.1; (37 °C) -0.831 ± 0.096.

ACAAAGCAAUAUUACGCCGU: the “self-splicing fitness (ln)” value (30 °C) was -2.44 ± 0.16 and the “self-splicing fitness (ln)” value (37 °C) is -1.41 ± 0.21.

Consider UAGUAGCAAUAUUACGCGUU, for which the “self-splicing fitness (ln)” value is, setting by setting: (30 °C) -2.86 ± 0.17; (37 °C) -2.44 ± 0.23.

Regarding GAAGAGCAAUAUUACGGUUG, the “self-splicing fitness (ln)” value is -3.86 ± 0.35 (30 °C) and -2.18 ± 0.38 (37 °C).

Consider GACAAGCAAUAUUACGGAAG, for which the “self-splicing fitness (ln)” value runs as follows: (30 °C) -2.75 ± 0.21; (37 °C) -3.29 ± 0.37.

For GCUGAGCAAUAUUACGUUGA, the “self-splicing fitness (ln)” value is, setting by setting: (30 °C) -2.57 ± 0.22; (37 °C) -2.61 ± 0.22.

On to AUCGAGCAAUAUUACGAGGG, for which the “self-splicing fitness (ln)” value (30 °C) was -1.4 ± 0.17 and the “self-splicing fitness (ln)” value (37 °C) was -2.1 ± 0.46.

For AGAUAGCAAUAUUACGCAAU, the “self-splicing fitness (ln)” value reads like this: (30 °C) -1.14 ± 0.1; (37 °C) -1.34 ± 0.15.

Turning to UUAGAGCAAUAUUACGAGUU, the “self-splicing fitness (ln)” value (37 °C) was -2.05 ± 0.39.

AAGAAGCAAUAUUACGGUGA: the “self-splicing fitness (ln)” value by setting is: (30 °C) -1.11 ± 0.078; (37 °C) -0.329 ± 0.092.

On to GAAUAGCAAUAUUACGGUAG, for which the “self-splicing fitness (ln)” value is, setting by setting: (30 °C) -2.88 ± 0.12; (37 °C) -2.22 ± 0.16.

As to UAAUAGCAAUAUUACGCCUA, the “self-splicing fitness (ln)” value (30 °C) is -0.175 ± 0.16 and the “self-splicing fitness (ln)” value (37 °C) worked out at 0.0899 ± 0.19.

On to AAGCAGCAAUAUUACGAAUA, for which the “self-splicing fitness (ln)” value was -2.44 ± 0.16 (30 °C) and -1.21 ± 0.12 (37 °C).

Consider UACGAGCAAUAUUACGUGCU, for which the “self-splicing fitness (ln)” value was -3.9 ± 0.23 (30 °C) and -2.4 ± 0.19 (37 °C).

As to AAGGAGCAAUAUUACGAAUG, the “self-splicing fitness (ln)” value (30 °C) was -2.39 ± 0.22.

Turning to UAAUAGCAAUAUUACGAAGA, where the note is “37 °C”, the “self-splicing fitness (ln)” value is -2.76 ± 0.31.

As for GCAAAGCAAUAUUACGGAGG, the “self-splicing fitness (ln)” value was -1.9 ± 0.1 (30 °C) and -1.62 ± 0.14 (37 °C).

On to ACAAAGCAAUAUUACGGCGC, for which the “self-splicing fitness (ln)” value runs as follows: (30 °C) -0.996 ± 0.076; (37 °C) 0.358 ± 0.12.

For AGAGAGCAAUAUUACGUUCC, the “self-splicing fitness (ln)” value by setting is: (30 °C) -1.63 ± 0.18; (37 °C) -3.14 ± 0.47.

With AGGGAGCAAUAUUACGGUUG, the “self-splicing fitness (ln)” value is -2.87 ± 0.19 (30 °C) and -2.76 ± 0.36 (37 °C).

With GUGCAGCAAUAUUACGGAAC, the “self-splicing fitness (ln)” value runs as follows: (30 °C) -2.17 ± 0.23; (37 °C) -1.12 ± 0.33.

Take GUGCAGCAAUAUUACGACUU: the “self-splicing fitness (ln)” value is -0.219 ± 0.087 (30 °C) and 0.408 ± 0.093 (37 °C).

Turning to CACGAGCAAUAUUACGGUAC, the “self-splicing fitness (ln)” value (30 °C) is -2.69 ± 0.21 and the “self-splicing fitness (ln)” value (37 °C) was -2.81 ± 0.3.

As for GAGUAGCAAUAUUACGGCCU, the “self-splicing fitness (ln)” value is, setting by setting: (30 °C) -0.381 ± 0.12; (37 °C) 0.808 ± 0.19.

For the sequence UUUUAGCAAUAUUACGAUGG, the “self-splicing fitness (ln)” value by setting is: (30 °C) -1.32 ± 0.19; (37 °C) -1.22 ± 0.2.
